Assay results as given in patent US20230395193A1 (priority 2020, published 2023).

B1: M-Q6AI08 (protein, UniProt Q6AI08 1-1181, looked up)
HEAT repeat-containing …: MAAVQVVGSWPSVQPREAPREAIPERGNGFRLLSARLCALRPDDSSSARTEIHLLFDQLISENYSEGSGVAPEDVSALLVQACRLVPLNQNHLVSKVSQLIHHLLNRLQVIVDEQHLDFLLAYTISAIHQCSSWTHREILQALAALVYCNGSKCQKYLPELLGNTGLLMKLSDLAQSDPEVRRAAVHCMANLCLSVPGQPYLEEPYQNVCFQAFLTILQSPKSSDMDDITFCMLLQNALKGIQSLLNGGRMKLTQTDELGALLAVLKKFMFHGLPGLNIEMPTVLYPTPLPQYDGRTPIKPQQSESSASRPTLNKKKKSKVKPKKIQQGEEEEKESSGEIEAAPVTGTGRVNLHEGNTWCPSSLGVQSLPLDGSGAAEKDGVSSSFSSSSWKRVSSSESDFSDAEGGMQSKMRSYQAKVRQGALVCFLSTIKSIEKKVLYGYWSAFIPDTPELGSPQSVSLMTLTLKDPSPKTRACALQVLSAILEGSKQFLSVAEDTSDHRRAFTPFSVMIACSIRELHRCLLLALVAESSSQTVTQIIKCLANLVSNAPYDRLKLSLLTKVWNQIKPYIRHKDVNVRVSSLTLLGAIVSTHAPLPEVQLLLQQPCSSGLGNSNSATPHLSPPDWWKKAPAGPSLEETSVSSPKGSSEPCWLIRLCISIVVLPKEDSCSGSDAGSAAGSTYEPSPMRLEALQVLTLLARGYFSMTQAYLMELGEVICKCMGEADPSIQLHGAKLLEELGTGLIQQYKPDSTAAPDQRAPVFLVVMFWTMMLNGPLPRALQNSEHPTLQASACDALSSILPEAFSNLPNDRQMLCITVLLGLNDSKNRLVKAATSRALGVYVLFPCLRQDVIFVADAANAILMSLEDKSLNVRAKAAWSLGNLTDTLIVNMETPDPSFQEEFSGLLLLKMLRSAIEASKDKDKVKSNAVRALGNLLHFLQPSHIEKPTFAEIIEESIQALISTVLTEAAMKVRWNACYAMGNVFKNPALPLGTAPWTSQAYNALTSVVTSCKNFKVRIRSAAALSVPGKREQYGSVDQYARIWNALVTALQKSEDTIDFLEFKYCVSLRTQICQALIHLLSLASASDLPCMKETLELSGNMVQSYILQFLKSGAEGDDTGAPHSPQERDQMVRMALKHMGSIQAPTGDTARRAIMGFLEEILAVCFDSSGSQGALPGLTNQ
modifications: interaction partner of SARS-CoV-2 M
B2: M-Q7RTS9 (protein, UniProt Q7RTS9 2-669, looked up)
Dymeclin: GSNSSRIGDLPKNEYLKKLSGTESISENDPFWNQLLSFSFPAPTSSSELKLLEEATISVCRSLVENNPRTGNLGALIKVFLSRTKELKLSAECQNHIFIWQTHNALFIICCLLKVFICQMSEEELQLHFTYEEKSPGNYSSDSEDLLEELLCCLMQLITDIPLLDITYEISVEAISTMVVFLSCQLFHKEVLRQSISHKYLMRGPCLPYTSKLVKTLLYNFIRQEKPPPPGAHVFPQQSDGGGLLYGLASGVATGLWTVFTLGGVGSKAAASPELSSPLANQSLLLLLVLANLTDASDAPNPYRQAIMSFKNTQDSSPFPSSIPHAFQINFNSLYTALCEQQTSDQATLLLYTLLHQNSNIRTYMLARTDMENLVLPILEILYHVEERNSHHVYMALIILLILTEDDGFNRSIHEVILKNITWYSERVLTEISLGSLLILVVIRTIQYNMTRTRDKYLHTNCLAALANMSAQFRSLHQYAAQRIISLFSLLSKKHNKVLEQATQSLRGSLSSNDVPLPDYAQDLNVIEEVIRMMLEIINSCLTNSLHHNPNLVYALLYKRDLFEQFRTHPSFQDIMQNIDLVISFFSSRLLQAGAELSVERVLEIIKQGVVALPKDRLKKFPELKFKYVEEEQPEEFFIPYVWSLVYNSAVGLYWNPQDIQLFTMDSD
modifications: interactor of viral M protein
B3: M-Q68DH5 (protein, UniProt Q68DH5 1-695, looked up)
G-protein coupled …: MSGAALGLEIVFVFFLALFLLHRYGDFKKQHRLVIIGTLLAWYLCFLIVFILPLDVSTTIYNRCKHAAANSSPPENSNITGLYATANPVPSQHPCFKPWSYIPDGIMPIFWRVVYWTSQFLTWILLPFMQSYARSGGFSITGKIKTALIENAIYYGTYLLIFGAFLIYVAVNPHLHLEWNQLQTIGIAAANTWGLFLLVLLLGYGLVEIPRSYWNGAKRGYLLMKTYFKAAKLMTEKADAEENLEDAMEEVRKVNESIKYNHPLRKCVDTILKKCPTEYQEKMGRNMDDYEDFDEKHSIYPSEKSLVKLHKQVIYSVQRHRRTQVQWQILLEQAFYLEDVAKNETSATHQFVHTFQSPEPENRFIQYFYNPTFEWYWECLLRPWFYKILAVVLSIFSVIVVWSECTFFSTTPVLSLFAVFIQLAEKTYNYIYIEIACFLSIFFLSICVYSTVFRIRVFNYYYLASHHQTDAYSLLFSGMLFCRLTPPLCLNFLGLTHMDSSISHKNTQPTAYTSIMGSMKVLSFIADGFYIYYPMLVVILCIATYFSLGTRCLNLLGFQQFMGDDDMTSDLVNEGKELIRKEKRKRQRQEEGENRRREWKERYGHNREDSTRNRNIHTDPKESNFSDVNTNRSAFKYTRANNRTERDRIELLQDAEPLDFNAETFTDDPLESESGRYQPGGRYLSMSRSDIFNDV
modifications: interaction partner of SARS-CoV-2 M
B4: M-Q6PJG6 (protein, UniProt Q6PJG6 1-821, looked up)
Integrator complex assembly …: MDPECAQLLPALCAVLVDPRQPVADDTCLEKLLDWFKTVTEGESSVVLLQEHPCLVELLSHVLKVQDLSSGVLSFSLRLAGTFAAQENCFQYLQQGELLPGLFGEPGPLGRATWAVPTVRSGWIQGLRSLAQHPSALRFLADHGAVDTIFSLQGDSSLFVASAASQLLVHVLALSMRGGAEGQPCLPGGDWPACAQKIMDHVEESLCSAATPKVTQALNVLTTTFGRCQSPWTEALWVRLSPRVACLLERDPIPAAHSFVDLLLCVARSPVFSSSDGSLWETVARALSCLGPTHMGPLALGILKLEHCPQALRTQAFQVLLQPLACVLKATVQAPGPPGLLDGTADDATTVDTLLASKSSCAGLLCRTLAHLEELQPLPQRPSPWPQASLLGATVTVLRLCDGSAAPASSVGGHLCGTLAGCVRVQRAALDFLGTLSQGTGPQELVTQALAVLLECLESPGSSPTVLKKAFQATLRWLLSSPKTPGCSDLGPLIPQFLRELFPVLQKRLCHPCWEVRDSALEFLTQLSRHWGGQADFRCALLASEVPQLALQLLQDPESYVRASAVTAMGQLSSQGLHAPTSPEHAEARQSLFLELLHILSVDSEGFPRRAVMQVFTEWLRDGHADAAQDTEQFVATVLQAASRDLDWEVRAQGLELALVFLGQTLGPPRTHCPYAVALPEVAPAQPLTEALRALCHVGLFDFAFCALFDCDRPVAQKSCDLLLFLRDKIASYSSLREARGSPNTASAEATLPRWRAGEQAQPPGDQEPEAVLAMLRSLDLEGLRSTLAESSDHVEKSPQSLLQDMLATGGFLQGDEADCY
B5: M-Q86UL3 (protein, UniProt Q86UL3 38-456, looked up)
Glycerol-3-phosphate …: VSFGIRKLYMKSLLKIFAWATLRMERGAKEKNHQLYKPYTNGIIAKDPTSLEEEIKEIRRSGSSKALDNTPEFELSDIFYFCRKGMETIMDDEVTKRFSAEELESWNLLSRTNYNFQYISLRLTVLWGLGVLIRYCFLLPLRIALAFTGISLLVVGTTVVGYLPNGRFKEFMSKHVHLMCYRICVRALTAIITYHDRENRPRNGGICVANHTSPIDVIILASDGYYAMVGQVHGGLMGVIQRAMVKACPHVWFERSEVKDRHLVAKRLTEHVQDKSKLPILIFPEGTCINNTSVMMFKKGSFEIGATVYPVAIKYDPQFGDAFWNSSKYGMVTYLLRMMTSWAIVCSVWYLPPMTREADEDAVQFANRVKSAIARQGGLVDLLWDGGLKREKVKDTFKEEQQKLYSKMIVGNHKDRSRS
modifications: interactor of M protein

System: SARS-CoV-1, MERS-CoV and SARS-CoV-2 proteins in HEK293T cells
Design: species or system human

Q: How did the MIST_MERS turn out when B1 was run?
A: 0

Q: And the MIST_SARS1?
A: 0.8284

Q: What about the MIST_SARS2 of the same molecule?
A: 0

Q: What about the Saint_MERS of the same molecule?
A: 0

Q: What about the Saint_SARS1 of the same molecule?
A: 0.97

Q: And the Saint_SARS2?
A: 0

Q: What does the source list for B2?
A: MIST_MERS: 0; MIST_SARS1: 0.9893; MIST_SARS2: 0; Saint_MERS: 0; Saint_SARS1: 0.97; Saint_SARS2: 0

Q: How did the MIST_MERS turn out when B3 was run?
A: 0.9869

Q: And the MIST_SARS1?
A: 0.6855

Q: What about the MIST_SARS2 of the same molecule?
A: 0.2449

Q: What about the Saint_MERS of the same molecule?
A: 0.95

Q: And the Saint_SARS1?
A: 0

Q: What about the Saint_SARS2 of the same molecule?
A: 0

Q: How did the MIST_MERS turn out when B4 was run?
A: 0

Q: And the MIST_SARS1?
A: 0.9911

Q: What about the MIST_SARS2 of the same molecule?
A: 0

Q: What about the Saint_MERS of the same molecule?
A: 0

Q: What about the Saint_SARS1 of the same molecule?
A: 1

Q: What about the Saint_SARS2 of the same molecule?
A: 0

Q: Which results are given for B5?
A: MIST_MERS: 0.2998; MIST_SARS1: 0.8496; MIST_SARS2: 0.485; Saint_MERS: 0.31; Saint_SARS1: 1; Saint_SARS2: 0.96
